# From the supplement of paper PMC10567573
# B1: JUNB (parent)
# chain: FVKALDDLHKMNHVTPPNVSLGAT
# Variants of: B1
# Assay: protein stability index of a GFP-peptide fusion (GPS, HEK-293T) (PSI 1-6); higher = more stable
# Details: c terminus: a fixed tail appended
# 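Further: lentivirally expressed fusions sorted by FACS into six bins by GFP to DsRed ratio, PSI derived from sequencing read proportions per bin multiplied by bin number.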
row,Variant,protein stability index
1,FVKALDDLHKLNHVTPPNVSLGAT,1.7
2,FVKALDDLHKINHVTPPNVSLGAT,2.26
3,FVKALDDLHKHNHVTPPNVSLGAT,1.94
4,FVKALDDLHKENHVTPPNVSLGAT,3.21
5,FVKALDDLHKKNHVTPPNVSLGAT,1.83
6,FVKALDDLHKGNHVTPPNVSLGAT,1.61
7,FVKALDDLHKRNHVTPPNVSLGAT,2.28
8,FVKALDDLHKCNHVTPPNVSLGAT,2.31
9,FVKALDDLHKNNHVTPPNVSLGAT,2.01
10,FVKALDDLHKYNHVTPPNVSLGAT,1.29
11,FVKALDDLHKVNHVTPPNVSLGAT,1.7
12,FVKALDDLHKDNHVTPPNVSLGAT,2.29
13,FVKALDDLHKTNHVTPPNVSLGAT,2.06
14,FVKALDDLHKFNHVTPPNVSLGAT,2.6
15,FVKALDDLHKANHVTPPNVSLGAT,2.29
16,FVKALDDLHKPNHVTPPNVSLGAT,1.4
17,FVKALDDLHKSNHVTPPNVSLGAT,2.11
18,FVKALDDLHKWNHVTPPNVSLGAT,2.23
19,FVKALDDLHKQNHVTPPNVSLGAT,2.63
20,FVKAADDLHKMNHVTPPNVSLGAT,2.23
21,FVKANDDLHKMNHVTPPNVSLGAT,2.38
22,FVKAIDDLHKMNHVTPPNVSLGAT,1.75
23,FVKAVDDLHKMNHVTPPNVSLGAT,1.86
24,FVKATDDLHKMNHVTPPNVSLGAT,2.22

row,Variant,protein stability index
1,FVKAYDDLHKMNHVTPPNVSLGAT,2.82
2,FVKAKDDLHKMNHVTPPNVSLGAT,2.27
3,FVKAMDDLHKMNHVTPPNVSLGAT,1.93
4,FVKAPDDLHKMNHVTPPNVSLGAT,2.2
5,FVKAWDDLHKMNHVTPPNVSLGAT,3.57
6,FVKASDDLHKMNHVTPPNVSLGAT,1.72
7,FVKACDDLHKMNHVTPPNVSLGAT,1.87
8,FVKARDDLHKMNHVTPPNVSLGAT,1.62
9,FVKADDDLHKMNHVTPPNVSLGAT,2.72
10,FVKAQDDLHKMNHVTPPNVSLGAT,2.08
11,FVKAHDDLHKMNHVTPPNVSLGAT,1.9
12,FVKAGDDLHKMNHVTPPNVSLGAT,1.99
13,FVKAEDDLHKMNHVTPPNVSLGAT,3.33
14,FVKAFDDLHKMNHVTPPNVSLGAT,2.1
15,FVKALDHLHKMNHVTPPNVSLGAT,3.12
16,FVKALDNLHKMNHVTPPNVSLGAT,1.96
17,FVKALDWLHKMNHVTPPNVSLGAT,2.24
18,FVKALDGLHKMNHVTPPNVSLGAT,1.98
19,FVKALDSLHKMNHVTPPNVSLGAT,1.47
20,FVKALDQLHKMNHVTPPNVSLGAT,1.7
21,FVKALDILHKMNHVTPPNVSLGAT,2.48
22,FVKALDYLHKMNHVTPPNVSLGAT,2.2
23,FVKALDKLHKMNHVTPPNVSLGAT,1.8
24,FVKALDELHKMNHVTPPNVSLGAT,1.57

row,Variant,protein stability index
1,FVKALDTLHKMNHVTPPNVSLGAT,2.16
2,FVKALDPLHKMNHVTPPNVSLGAT,3.02
3,FVKALDRLHKMNHVTPPNVSLGAT,1.93
4,FVKALDVLHKMNHVTPPNVSLGAT,2.27
5,FVKALDCLHKMNHVTPPNVSLGAT,2.15
6,FVKALDALHKMNHVTPPNVSLGAT,1.69
7,FVKALDFLHKMNHVTPPNVSLGAT,2.71
8,FVKALDMLHKMNHVTPPNVSLGAT,2.62
9,FVKRLDDLHKMNHVTPPNVSLGAT,1.61
10,FVKGLDDLHKMNHVTPPNVSLGAT,2.68
11,FVKWLDDLHKMNHVTPPNVSLGAT,3.85
12,FVKNLDDLHKMNHVTPPNVSLGAT,1.66
13,FVKTLDDLHKMNHVTPPNVSLGAT,2.34
14,FVKSLDDLHKMNHVTPPNVSLGAT,2.03
15,FVKCLDDLHKMNHVTPPNVSLGAT,1.63
16,FVKPLDDLHKMNHVTPPNVSLGAT,2.6
17,FVKELDDLHKMNHVTPPNVSLGAT,2.13
18,FVKMLDDLHKMNHVTPPNVSLGAT,1.58
19,FVKDLDDLHKMNHVTPPNVSLGAT,2.24
20,FVKHLDDLHKMNHVTPPNVSLGAT,2.03
21,FVKFLDDLHKMNHVTPPNVSLGAT,1.15
22,FVKYLDDLHKMNHVTPPNVSLGAT,2.85
23,FVKLLDDLHKMNHVTPPNVSLGAT,2.69
24,FVKILDDLHKMNHVTPPNVSLGAT,2.12

row,Variant,protein stability index
1,FVKQLDDLHKMNHVTPPNVSLGAT,1.94
2,FVKKLDDLHKMNHVTPPNVSLGAT,1.58
3,FVKVLDDLHKMNHVTPPNVSLGAT,1.77
4,FVMALDDLHKMNHVTPPNVSLGAT,1.74
5,FVNALDDLHKMNHVTPPNVSLGAT,1.86
6,FVPALDDLHKMNHVTPPNVSLGAT,2.97
7,FVQALDDLHKMNHVTPPNVSLGAT,1.94
8,FVWALDDLHKMNHVTPPNVSLGAT,2.47
9,FVRALDDLHKMNHVTPPNVSLGAT,1.76
10,FVYALDDLHKMNHVTPPNVSLGAT,1.73
11,FVGALDDLHKMNHVTPPNVSLGAT,2.12
12,FVVALDDLHKMNHVTPPNVSLGAT,1.96
13,FVFALDDLHKMNHVTPPNVSLGAT,3.15
14,FVDALDDLHKMNHVTPPNVSLGAT,2.23
15,FVLALDDLHKMNHVTPPNVSLGAT,1.66
16,FVAALDDLHKMNHVTPPNVSLGAT,1.69
17,FVHALDDLHKMNHVTPPNVSLGAT,2.23
18,FVIALDDLHKMNHVTPPNVSLGAT,1.98
19,FVSALDDLHKMNHVTPPNVSLGAT,2.72
20,FVTALDDLHKMNHVTPPNVSLGAT,2.02
21,FVCALDDLHKMNHVTPPNVSLGAT,3.29
22,FVEALDDLHKMNHVTPPNVSLGAT,2.44
